Measured values: US20170298096A1 (CANIMGUIDE THERAPEUTICS, published 2017)
Positions of bridges follow the written chain, without caps; N, C: chain ends. No end group written: not given here.

T1: His-tagged P3028 (human, not fully specified)
T1 construct: the tag is put first after 'PGE73=His-tag-P3028'; also called PGE73; not shown: His-tag
T1 peptide: {His‑tag}-VFDEFKPLVEEPQNLIK

T2: His-tagged P3028 (human, also: His-tag, terminus and sequence not given here)
T2 construct: used in solution in the PEPSCAN (rampo) ELISA; also called PGE73; His-tag-P3028; not shown: His tag
T2 peptide: VFDEFKPLVEEPQNLIK

T3: His-tagged P3028 peptide (PGE73) (human)
T3 construct: also called His-tag-P3028; not shown: His-tag
T3 peptide: VFDEFKPLVEEPQNLIK

T4: fusion protein of CD25 and the Fc-part of IgG (human, UniProt P01589 22-240, limits assumed)
T4 construct: also called rhuIL-2R alpha; rhuIL-2R
T4 sequence: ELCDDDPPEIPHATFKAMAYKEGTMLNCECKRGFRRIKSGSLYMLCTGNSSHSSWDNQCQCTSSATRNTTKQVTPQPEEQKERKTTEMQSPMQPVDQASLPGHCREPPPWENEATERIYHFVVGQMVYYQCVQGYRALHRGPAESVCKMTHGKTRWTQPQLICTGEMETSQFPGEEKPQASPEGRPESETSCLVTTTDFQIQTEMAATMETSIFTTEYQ

B1: cyclic peptide CLRLIVMCG (peptide)
peptide: CLRLIVMCG
modifications: bridge 1-8 (inferred); not fully specified
B2: cyclic peptide CLRLNVFCG (peptide)
peptide: CLRLNVFCG
modifications: bridge 1-8 (inferred); not fully specified
B3: Asp-N-generated albumin fragment 586-609 (peptide)
peptide: DDKETCFAEEGKKLVAASQAALGL
B4: Asp-N-generated albumin fragment 62-79 (peptide)
peptide: DHVKLVNEVTEFAKTCVA
B5: Asp-N-generated albumin fragment 518-535 (peptide)
peptide: DETYVPKEFNAETFTHA
B6: Asp-N-generated albumin fragment 96-112 (peptide)
peptide: DKLCTVATLRETYGEM
B7: Asp-N-generated albumin fragment 96-130 (peptide)
peptide: KLCTVATLRETYGEMADCCAKQEPERNECFLQHK
B8: Asp-N-generated albumin fragment 475-517 (peptide)
peptide: YLSVVLNQLCVLHEKTPVSDRVTKCCCTESLVNRRPFSALEV
B9: Asp-N-generated albumin fragment 495-517 (peptide)
peptide: DRVTKCCTESLVNRRPCFSALEV
B10: Asp-N-generated albumin fragment 293-319 (peptide)
peptide: DSISSKLKECCEKPLLEKSHCIAEVEN
B11: Asp-N-generated albumin fragment 364-398 (peptide)
peptide: YSVVLLLRLAKTYETTLEKCCAAADPHECYAKVF
B12: Asp-N-generated albumin fragment 37-79 (peptide)
peptide: LGEENFKALVLIAFAQYLQQCPFEDHVKLVNEVTEFAKTCVA
B13: Asp-N-generated albumin fragment 495-535 (peptide)
peptide: RVTKCCTESLVNRRPCFSALEVDETYVPKEFNAETFTFHA
B14: Asp-N-generated albumin fragment 283-319 (peptide)
peptide: LAKYICENQDSISSKLKECCEKPLLEKHCIAEVEN
B15: Asp-N-generated albumin fragment 536-572 (peptide)
peptide: ICTLSEKERQIKKQTALVELVKHKPKATKEQLKAVM
B16: Asp-N-generated albumin fragment 348-388 (peptide)
peptide: VFLGMFLYEYARRHPDYSVVLLLRLAKTYETTLEKCCAAA
B17: albumin fragment … (peptide)
peptide: LDELRDEGK
B18: albumin fragment O… (peptide)
peptide: QNCELFEQLGEYK
B19: albumin fragment … (peptide)
peptide: VPQVSTPTLVEVSR
B20: albumin fragment … (peptide)
peptide: KVPQVSTPTLVEVSR
B21: albumin fragment … (peptide)
peptide: VHTECCHGDLLECADDR
B22: albumin fragment … (peptide)
peptide: AVMDDFAAFVEK
B23: albumin fragment … (peptide)
peptide: FKDLGEENFK
B24: albumin fragment … (peptide)
peptide: SLHTLFGDK
B25: albumin fragment KYLYEIAR (peptide)
peptide: KYLYEIAR
B26: albumin fragment … (peptide)
peptide: CCAAADPHECYAK
B27: albumin fragment … (peptide)
peptide: CCTESLVNR
B28: albumin fragment LCTVATLR (peptide)
peptide: LCTVATLR
B29: albumin fragment … (peptide)
peptide: VFDEFKPLVEEPQNLIK
B30: albumin fragment … (peptide)
peptide: RPCFSALEVDETYVPK
B31: albumin fragment DDNPNLPR (peptide)
peptide: DDNPNLPR
B32: albumin fragment NECFLQHK (peptide)
peptide: NECFLQHK
B33: albumin fragment … (peptide)
peptide: YICENQDSISSK
B34: albumin fragment FQNALLVR (peptide)
peptide: FQNALLVR
B35: albumin fragment YLYEIAR (peptide)
peptide: YLYEIAR
B36: albumin fragment … (peptide)
peptide: AAFTECCQAADK
B37: albumin fragment … (peptide)
peptide: LKECCEKPLLEK
B38: lead cyclic peptide CLALNVMCG (peptide)
peptide: CLALNVMCG
modifications: bridge 1-8 (inferred)
notes: also called lead looped peptide
B39: SEQ ID NO: 6 (peptide)
peptide: KKLDQFFVKLSLFTER
notes: P28R variant on PEPSCAN card
B40: SEQ ID NO: 4 (peptide)
peptide: KKGDTFFVKLSLFTER
notes: P28R variant on PEPSCAN card
B41: SEQ ID NO: 5 (peptide)
peptide: KKEDTFFVKLSLFTER
notes: P28R variant on PEPSCAN card
B42: SEQ ID NO: 19 (peptide)
peptide: KKLDTFFVKLSQFTER
notes: P28R variant on PEPSCAN card
B43: SEQ ID NO: 20 (peptide)
peptide: KKLDTFFVKLSVFTER
notes: P28R variant on PEPSCAN card
B44: SEQ ID NO: 21 (peptide)
peptide: KKLDTFFVKLSMFTER
notes: P28R variant on PEPSCAN card
B45: SEQ ID NO: 32 (peptide)
peptide: KKLDTFFVKLSLFPER
notes: P28R variant on PEPSCAN card
B46: SEQ ID NO: 33 (peptide)
peptide: KKLDTFFVKLSLFRER
notes: P28R variant on PEPSCAN card
B47: SEQ ID NO: 14 (peptide)
peptide: KKLDTFFVKVSLFTER
notes: P28R variant on PEPSCAN card
B48: SEQ ID NO: 15 (peptide)
peptide: KKLDTFFVKLQLFTER
notes: P28R variant on PEPSCAN card
B49: SEQ ID NO: 22 (peptide)
peptide: KKLDTFFVKLSLMTER
notes: P28R variant on PEPSCAN card
B50: peptide 30680 (peptide)
peptide: KKLDTVMVKLQLMTER
notes: Four changes against P28R
B51: peptide 32814 (peptide)
peptide: RKLDTFFVKLSLFTERRR
notes: K1R and two added C-terminal R against P28R
B52: P28 core (peptide)
peptide: FFVKLS
notes: also called peptide 32230; FFVKLS
B53: cyclic peptide CLRLNVFCG (peptide)
peptide: CLRLNVFCG
modifications: bridge 1-8 (inferred)
B54: cyclic peptide CLRLIVMCG (peptide)
peptide: CLRLIVMCG
modifications: bridge 1-8 (inferred)
B55: P3028 (peptide)
peptide: VFDEFKPLVEEPQNLIK
B56: cyclic peptide CLALNVMCG (peptide)
peptide: CLALNVMCG
modifications: bridge 1-8 (inferred); not fully specified
notes: also called lead cyclic peptide; lead looped peptide

Target: T1, His-tagged P3028
Experiment: chip ELISA with His-tag labelled P3028, positional scan
Experimental: (§1) Positional scans were performed in each position of the lead cyclic peptide was replaced with each of the other 19 L-amino acids.

binding result	Binder
binds	B1
binds	B2

Target: Artificial Cell Surface (ACS): biotinylated cell surface proteins of PBMCs bound to streptavidin columns
Experiment: Asp-N-digested dHSA adsorbed on ACS column, MALDI-TOF ms

Percent Absorbed	Binder
100%	B3
100%	B4
86%	B5
65%	B6
100%	B7
37%	B8
87%	B9
65%	B10
100%	B11
100%	B12
100%	B13
100%	B14
100%	B15
100%	B16

Target: Artificial Cell Surface (ACS): biotinylated cell surface proteins of PBMCs bound to streptavidin columns
Experiment: trypsin-digested dHSA adsorbed on ACS column, MALDI-TOF ms

Percent Absorbed	Binder
2%	B17
20%	B18
59%	B19
64%	B20
13%	B21
23%	B22
8%	B23
36%	B24
71%	B25
32%	B26
26%	B27
35%	B28
60%	B29
42%	B30
1%	B31
22%	B32
3%	B33
41%	B34
34%	B35
29%	B36
36%	B37

Target: T2, His-tagged P3028
Experiment: ELISA on chip with His-tag labeled P3028
Experimental: as §1

binding result	Binder
binds	B38

Target: T3, His-tagged P3028 peptide (PGE73)
Experiment: PEPSCAN ELISA; peptide on card, His-tagged P3028 in solution
Experimental: After washing, the peroxidase substrate 2,2′-azine-di-3-ethylbenzthiazoline sulfonate (ABTS) and 2 μL of 3% H2O2 were added. The binding capacity of the mAb was measured as a color development at 405 nm (optical density, OD405). The color development was quantified with a charge-coupled device (CCD)—camera and an image processing system.
The OD405-values obtained by a CCD-camera was considered as raw data values (“rampo values,” “rampo units,” or “rampo scores”). […] First the CCD-camera made a picture of the card before peroxidase coloring and then again a picture after the peroxidase coloring. […] These values were copied into an excel file and labeled as a raw data file. One follow-up manipulation was allowed. Sometimes a well can contain an air-bubble resulting in a false-positive value. If manual inspection of the cards detect an air-bubble the value are set to 0 for that well.

RAMPO Score	Binder
> 500 rampo units	B39
> 500 rampo units	B40
> 500 rampo units	B41
> 500 rampo units	B42
> 500 rampo units	B43
> 500 rampo units	B44
> 500 rampo units	B45
> 500 rampo units	B46
> 500 rampo units	B47
> 500 rampo units	B48
> 500 rampo units	B49

Target: T3, His-tagged P3028 peptide (PGE73)
Experiment: positional scan, PEPSCAN ELISA on chip
Experimental: as §1

binding result	Binder
binds	B50
binds	B51

Target: T2, His-tagged P3028
Experiment: positional scan / PEPSCAN ELISA

binding result	Binder
binds	B52

Target: T2, His-tagged P3028
Experiment: positional scan, ELISA on chip with His-tag labeled P3028
Experimental: as §1

binding result	Binder
binds	B53
binds	B54

Target: T4, fusion protein of CD25 and the Fc-part …
Experiment: ELISA, CD25-Fc on protein G coated plates, biotinylated IL-2 with or without P3028

binding result	Binder
binds	B55

Target: T1, His-tagged P3028
Experiment: chip ELISA with His-tag labelled P3028
Experimental: as §1

binding result	Binder
binds	B56
